By pKd is commonly meant the negative decadic logarithm of the Kd, by convention in mol/L. The term koff denotes a measure of how fast the partners let go of each other. A word on the kon: it is a measure of how fast the partners come together. A higher kon goes with faster complex formation.

We go through two substances from patent US20100093076A1, “SOLUBLE IL-27 RECEPTOR” (priority 2006, published 2010).

Experiment [1] addresses mouse IL-27 (single-chain molecule: EBI3 connected by its C-terminus to the N-terminus of IL-27 p28 via a polypeptide linker, amino-terminal peptide tag) (mouse) (UniProt O35228). In words: cell-based or functional assay.
For experiment [2], the target named is human IL-27 (single-chain molecule: EBI3 connected by its C-terminus to the N-terminus of IL-27 p28 via a polypeptide linker, amino-terminal peptide tag) (human) (UniProt Q14213). Description: cell-based or functional assay.
Experiment [3] concerns the target mouse IL-27 (single-chain molecule: EBI3 connected by its C-terminus to the N-terminus of IL-27 p28 via a polypeptide linker, amino-terminal peptide tag) (mouse) (UniProt O35228). In words: SPR (BIACORE 3000), receptor captured by anti-mouse Fc antibody on CM5 chip, ligand as analyte, 1:1 model with mass transport. On the technique in general: Surface plasmon resonance follows binding to a sensor surface in real time, without labels.

Experiment [4] shares this target. Description: SPR (BIACORE 3000), receptor amine-coupled to CM5 chip, ligand as analyte, 1:1 model with mass transport.
Experiment [5] deals with human IL-27 (single-chain molecule: EBI3 connected by its C-terminus to the N-terminus of IL-27 p28 via a polypeptide linker, amino-terminal peptide tag) (human) (UniProt Q14213). Described as above.

pKd: −log10 of the molar value.

For “IL27RAm(mFc1), mouse IL27RA-Fc fusion polypeptide (extracellular domain of mouse IL27RA and wild type BALB/c mouse gamma2a constant region Fc tag)”, in experiment [1], the IC50 (nM), inhibition of IL-27-induced STAT3 phosphorylation, mouse spleens, muIL-27 at EC90 0.2 nM amounted to 0.18 nM; the IC50 (nM), inhibition of IL-27-induced STAT3 phosphorylation, total human PBMCs, muIL-27 at EC90 2 nM is 4.83 nM; the IL-2 concentration (pg/ml), naive mouse CD4 T cells, 48 hr, mIL-27RA 0 ug/ml (zero point, no soluble receptor present) + mouse IL-27 10 ng/ml stood at 1260 pg/mL; the IL-2 concentration (pg/ml), naive mouse CD4 T cells, 48 hr, mIL-27RA 5 ug/ml + mouse IL-27 10 ng/ml is 4020 pg/mL. Further, in experiment [1], the IL-2 concentration (pg/ml), naive mouse CD4 T cells, 48 hr, mIL-27RA 10 ug/ml (second row) + mouse IL-27 10 ng/ml is 4920 pg/mL; the IL-2 concentration (pg/ml), naive mouse CD4 T cells, 48 hr, mIL-27RA 10 ug/ml + mouse IL-27 10 ng/ml was found to be 5220 pg/mL; the IL-2 concentration (pg/ml), naive mouse CD4 T cells, 72 hr, mIL-27RA 0 ug/ml (zero point, no soluble receptor present) + mouse IL-27 10 ng/ml turned out to be 234 pg/mL; the IL-2 concentration (pg/ml), naive mouse CD4 T cells, 72 hr, mIL-27RA 5 ug/ml + mouse IL-27 10 ng/ml came to 5740 pg/mL. In experiment [1], the IL-2 concentration (pg/ml), naive mouse CD4 T cells, 72 hr, mIL-27RA 10 ug/ml (second row) + mouse IL-27 10 ng/ml worked out at 12200 pg/mL; the IL-2 concentration (pg/ml), naive mouse CD4 T cells, 72 hr, mIL-27RA 10 ug/ml + mouse IL-27 10 ng/ml was 6700 pg/mL; the block of the ability of mouse IL-27 to inhibit IL-2 production by naive CD4 T cells amounted to 50%. In experiment [2], this substance showed an IC50 (nM), inhibition of IL-27-induced STAT3 phosphorylation, mouse spleens, huIL-27 at EC90 2 nM of 9.3 nM and an IC50 (nM), inhibition of IL-27-induced STAT3 phosphorylation, total human PBMCs, huIL-27 at EC90 2 nM of 1370 nM. In experiment [3], this substance had a pKd of 9.92, a dissociation rate constant (koff) of 0.0012 s⁻¹ and a kon of 1e+07 M⁻¹ s⁻¹.
Turning to “human IL27RA-Fc5 fusion protein (Fc fusion)”, in experiment [1], the IC50 (nM), inhibition of IL-27-induced STAT3 phosphorylation, mouse spleens, muIL-27 at EC90 0.2 nM is 0.14 nM; the IC50 (nM), inhibition of IL-27-induced STAT3 phosphorylation, total human PBMCs, muIL-27 at EC90 2 nM was 2.97 nM; the IL-2 concentration (pg/ml), naive mouse CD4 T cells, 48 hr, hIL-27RA 0 ug/ml (zero point, no soluble receptor present) + mouse IL-27 10 ng/ml came to 1780 pg/mL; the IL-2 concentration (pg/ml), naive mouse CD4 T cells, 48 hr, hIL-27RA 5 ug/ml + mouse IL-27 10 ng/ml was 5780 pg/mL. In addition, in experiment [1], the IL-2 concentration (pg/ml), naive mouse CD4 T cells, 48 hr, hIL-27RA 10 ug/ml (second row) + mouse IL-27 10 ng/ml was 5330 pg/mL; the IL-2 concentration (pg/ml), naive mouse CD4 T cells, 48 hr, hIL-27RA 10 ug/ml + mouse IL-27 10 ng/ml was 5770 pg/mL; the IL-2 concentration (pg/ml), naive mouse CD4 T cells, 72 hr, hIL-27RA 0 ug/ml (zero point, no soluble receptor present) + mouse IL-27 10 ng/ml was determined as 1260 pg/mL; the IL-2 concentration (pg/ml), naive mouse CD4 T cells, 72 hr, hIL-27RA 5 ug/ml + mouse IL-27 10 ng/ml came to 1870 pg/mL. In addition, in experiment [1], the IL-2 concentration (pg/ml), naive mouse CD4 T cells, 72 hr, hIL-27RA 10 ug/ml (second row) + mouse IL-27 10 ng/ml amounted to 17500 pg/mL; the IL-2 concentration (pg/ml), naive mouse CD4 T cells, 72 hr, hIL-27RA 10 ug/ml + mouse IL-27 10 ng/ml came to 28600 pg/mL; the block of the ability of mouse IL-27 to inhibit IL-2 production by naive CD4 T cells was 50%. In experiment [2], this substance came in with an IC50 (nM), inhibition of IL-27-induced STAT3 phosphorylation, mouse spleens, huIL-27 at EC90 2 nM of 0.32 nM and an IC50 (nM), inhibition of IL-27-induced STAT3 phosphorylation, total human PBMCs, huIL-27 at EC90 2 nM of 0.95 nM. In experiment [4], the pKd is 9.66, the off-rate constant (koff) worked out at 0.0018 s⁻¹ and the kon came to 8.1e+06 M⁻¹ s⁻¹. Moreover, in experiment [5], the pKd was 9.72, the koff came to 0.0019 s⁻¹ and the kon turned out to be 1e+07 M⁻¹ s⁻¹.
